Data as given in publication PMC3057836 (The Journal of Biological Chemistry, 2010).

B1: CSpoIISA (His6 tag-free cytosolic domain of SpoIISA) (domain or fragment)
chain: FIFLSAYVKKLAGSELETDTREILEENNEMLHMYLNRLKTYQYLLKNEPIHVYYGSIDAYAEGIDKLLKTYADKMNLTASLCHYSTQADKDRLTEHMDDPADVQTRLDRKDVYYDQYGKVVLIPFTIETQNYVIKLTSDSIVTEFDYLLFTSLTSIYDLVLPIEEEGEG
B2: cytoplasmic fragment of SpoIISA (CSpoIISA) as found in the crystal of the CSpoIISA·SpoIISB complex (domain or fragment)
chain: GSELETDTREILEENNEMLHMYLNRLKTYQYLLKNEPIHVYYGSIDAYAEGIDKLLKTYADKMNLTASLCHYSTQADKDRLTEHMDDPADVQTRLDRKDVYYDQYGKVVLIPFTIETQNYVIKLTSDSIVTEFDYLLFTSLTSIYDLVLPIEEEGEG
modifications: selenomethionine-substituted

What was measured:
SEC = target: the molecule itself; assay: SEC
crystal structure = target: the molecule itself; assay: crystal structure

Protein | stoichiometry N (SEC) | stoichiometry N (crystal structure)
B1 | 2 | 
B2 |  | 2
